In a protein production outcome set (Wang et al. 2014):

Assay: label from the status in PepcDB records

MIVIEKLTVDMARGVENNLEGLQIFVAVAEAGGFTAAAERLGMTKANVSLQVGRLEAQLGATLFTRTTRRVKLTEAGQALYLDAQPALAALRDALLQAGHGAAELSGTLRLTAPVSHMAESVAPAATQFIRRHPGLQLELHAIDRMVDLVAEGMDLAIRLGTLRDSSLRALKLGEFAQQLVASPAYLRERGMPAHPGELAGHDWVALTLLKTPLTWRFAGAGGAEETVRMRARIKVDSAASLRSLLLAGAGMSVLDSFSVQEDLRQGRLIHLLPQWTLPKGGVYAVFPPGRHAPAAARAFVEFYRVLLARPV
protein production: failed

EDLSAQPVQTKFPAYERVVLREAGFLRPVTIFGPIADVAREKLAREEPDIYQIAKSEPRDAGTDQRSSGIIRLHTIKQIIDQDKHALLDVTPNAVDRLNYAQWYPIVVFLNPDSKQGVKTMRMRLCPESRKSARKLYERSHKLRKNNHHLFTTTINLNSMNDGWYGALKEAIQQQQNQLVWVSEGKADGAT
protein production: failed

PLPPPRALTLAAVTPRTVHLTWQPSAGATHYLVRCSPASPKGEEEEREVQVGRPEVLLDGLEPGRDYEVSVQSLRGPEGSEARGIRARTPT
protein production: not failed

MWEIYDAMINGIPEDFLVDELVCGTTHSVIRSGNGVGLGPNRPFETRMPMLTQNLLGLPLRVAAGCVKSWNYVEASIGLAAINAYYNNPQVAREHGVIFSDAKRVEDRMNDPFIMSQNEVKGKKVGVVGHFPHLESLLEPICDLSILEWSPEEGDYPLPASEFILPECDYVYITCASVVDKTLPRLLELSRNARRITLVGPGTPLAPVLFEHGLQELSGFMVKDNARAFRIVAGAEKVKIYSAGQKVTIKK
protein production: not failed

MGLGRQSLNIMTFSGQELTAIIKMAKSMVMADGKIKPAEIAVMTREFMRFGILQDQVDLLLKASDSIEASQAVALIARMDEERKKYVASYLGVIMASDGDIDDNELALWTLISTLCGLPTMTVMEAINNMKNL
protein production: not failed

MSSEKVMSESSNASTKEGQLPRSSGVSWSLIMGAAFLMATSAVGPGFLTQTTVFTQTLGASFAFVILVSIILDIGAQLNIWRVIVVSKKRAQDIANDLLPGLGYAIAGTVALGGLAFNIGNIGGAGMGMNVLFPSISPVAGASISAVIAVAIFMLKDAAKVMDRFTILMGAALIVMTLYVLFSTSPPIGEALYRSVWPEKLNVLAIITLVGGTVGGYITFAGAHRLIDAGVTGKEALPQVNRGSVSAISVASIVRVILFLAALGVISTGVTLDPSNPPASMFQHAAGNIGYKIFGLVLWAAAITSVIGAAYTSVSFLKTLHPMIDLHSRKFIIGFIVISTFIFCFIGKPVVLLIVAGALNGFILPVTLGIMLIAAKKAQIVGDYKHPVWMSVFGWLITAMMAAMSVYTLYMLLI
protein production: failed

MFLDYFALGLLIFVALVIFYGIIVIHDIPYEIAKEREHPHQDAIHYAGWVSLFTLHALWPFLWIWATLWRKERGWGFQKLEAEQHDIHHRVDVLIDEVKQLRTELETLKTSSLSVPKSTPAASTSEEKQ
protein production: failed

MIIYDQHVHTSFSFDSNEKMEDYMKLAGQDFVSTEHLEFNNPEVQNHDSIPDYTKYVAEIERLKKATGKRVHKGIEIGMSAGQADKIKDYLAHHTFDIKLLSFHQDGTKDFGSNMVSHLDPLQVTDQYYQLMWKGINEFHDADVLAHFDYGVRRLSLTSGQFSTTAGVLLTNIFKVAIQNNLAFELNTKSMYKYHNIGLYDYAIEIYKQLGGKRYTIGSDAHDATHYEDHFRDALDMLKAHDIHHINVYRQGAMTVVPIDDIPEDL
protein production: failed

MTEVDPRFEAWLSLETGIDAPSLGANALERAVLERARAMLAESSPRRPAVADAAALDAYWLRLNTWPEERQALIEALVVPETWFFRDREAFAELARLAGERLVREPARVLRILSVACSTGEEPYSAAMALLDAGIGPARFAIDAIDISGRAIDQAEHALYGRNAFRGYPLTFRDRYFSEVADGWQLNERVRRRVRFTQGNLFDETMDGEARYDFIFCRNALTYFHRDAQDHAIRRLDAQLADGGVIFVGPAETGPMMRHAMTPARSPLAFAFVRTPPAAKVPARAAPSQQQAPRPAVTGSPTVKPAAPEAASLAVRGGGAALPEHSAAVPVSLSTPLSVPPLRKVLPDLDDARQLTDAGRFDEAEYIIQDIVSLSAPEADTFYLLGVIAHARGRYADAGDFYRKTLYLDPEHYEALTHLAAVLDASGDAVGARQLMLRAQRAMARRDPAHPDAPNRPRGAPGLRRS
protein production: failed

MRIGVYVCHCGLNIAGVIDVSALEEMAGELEDVVLAREVQFLCSDSGQEGIIKDIKDNKIDRVVIAACSPRLHEKTFRHVMEKADLNPYLMEMVNIREQCSWVHADDPQMATQKAFDLIRMGVAKARFLRELSATSSKASRNVLIIGGGVAGIEAALNLAEAGFPVTMVERESTIGGKMALMNEVFPTNDCSICVLAPKMTEVQNHPNITLYTYSEVTDISGSVGKFHVRVTRKPRFVLEDKCKGCVDLCSEVCPVEIENPMNYGIGKSRAIYMPIPQSVPQVVLIDPDHCVGCGLCQLACPAEAVDYEQKPEEIEFEAGAVIVSTGYQLFDASRKKEYGFGKYPDVITNMQLERMLNSAGPTGGRVLVPSTGQPPESVAFIQCVGSRDKTVGNEHCSRVCCMAALKNSQMVKERYPGTDITIHYIDIRAAGEMYEEYYARTQGMGVDFIRGKVAEVYAGEDGRPVVRYENTLESRVEEEAHDLVVLSTGYEPSKAAEGIGRMLNLARRPDRFFASAHPKMRPVDAPVSGVFLAGCASGPKEIQVSIAQGSACASKVMQLLGTGELEADPMGAHVDPDKCIGCRTCVEVCKFGKISIVDKKAVVDEVSCYGCGDCSAACPVGAIQMRNFENEQILAQVRAATAHKSQCPFVVAFLCNWCSYACADLTGMSRIHYPTNIRVIRTMCSARINPEFVLEALKGGADGVLVAGCRMDECHYIHGNFDAKKRMDVLKEIIKEIGLDPKRLRTLWISAAEGERFSNTITEFVKELEEIGPIGSELKREYTATGLEEVAK
protein production: failed

MNAINTKVTPTKRKQVALFSSDPNFKRDVATRLDALAIYDVRVSETDDFLKGPPADTRPGIVILDLGGGDLLGKPGIVEARALWATVPLIAVSDELTSEQTRVLVRMNASDWLHKPLDGKELLNAVTFHDTGNQ
protein production: not failed

MRKRGIMSKRLLAVLCMASVTTSLFSFRGLEVKASPNVPYDQKESLAPLGEVYSIETLLNWTPESDPDAKYNRASIELQDRFMGDIVNENANPEAKIMNVALTNPYVDRAPSQGSDSMDAYVFSYWQYVNSYVYWGGSSRGIFALPTPDVVDNAHKNGVPVLATIGFPWGPGEGYVEQVRAFLQKDNNGNFPVADKMIEIAEYYGFDGYFFNQESYGCVKDDADRMVEMLEYIKKKAPNMVIGWYDSMTVDGNVKWQDALNDKNAAFFQNGENRTTDEFFLNYNWTPEKIETTVNTAKSLGRSPFDVYAGLDVQQNAYNTPFNDDYLLDENGKLRLSLAMYTPNSTFSMAKDVYDFYKHDQKFWVGPTGDPSKSDTEQDWTGLANYVPDRSAINDLPFVTNFNLGHGEDYYIDGSLSRDEEWNNRAMQEYLPTWRWIVESNGSKLTPDFDFKTAYNGGSSLKVEGKLEAANPNHIKLYSTDLNIENNSTELSIVYKTESAPNMKVGLCFGENYDEENFTFFDVNKNSNGEWTEVKIPLGDHVGKTISAISLKFESGQDVENFKINVGQISIEETAENNKGLKNSDVILEETMVHNSNSAEARIYWNGLESGNEDDLAFYEIYRIKPDGSRELMGATPNDAYYVQEFERYGEEMEFDIEVVPVDVNYNRGEGKRVTFNWGIPHDATQIPDKKVYENLALYKSVQTSAEGAAEPGLKAVDGKVDNNSKWCAAGAKDGWLTIDLGEPKNIQRWVVKHAEAGGEAKDMNTKDFALEVSYDGGQTYQEVDVVTGNEDAITDRNLENPIVAQHLRLRIDNSGSSPWAAIRIYEFQLYEETFTDQTTEIPMRFVNAKNNKGANDSVLFTRGKEGQTVNLYKGLNDETPFATATIDSNGEAKFEGLDFGEDGGRVYYGTVEEGKRESLRMSAAFEGENWEYSKVPERFELTPYKAPGMNGENHNYGTLKINDLEAGDIVSIFNDKDSIFPEKVSVPVAKGGDTAILDRISINPEGGVLTLEVKSEGKKARRIEVPYSGFGEIEMKIESEAPTNLRTVDVQKKSVSLAWDSPENTYGLEGYIIYKDNKKVGEVSADETEFTVGKLNRHTIYNFKVAAKYSNGEISKRDTITVRTAR
protein production: failed

MLEGVARPSLLRRLSCAPGMPAPVRRLAERIEGSHLATRLAEGAFWSFAGSALSRAFALAASVVTARFLGKAQYGELGVLLSTLLTFQAFASLGLGMTATKYVSELRTKDPERAGRILGMSAVLSAATGVLAAALLWAFAPWLASSTIGAPHLTEPLRIAGLGLVFTTMGGAQTGALAGFEAFRTQTQLNVWLGLLGVPIAVVGVWRWGLQGAVWATVVTAALQWALTHVAVRVHARRDRVPVSPRGWWREQRILWTFSLPALAQGVMVGPVSWAAAAILVNQPGGYPEMGAFSAANQWYAAVLFLPNALCGPVLPVLSERVGRGDGPGVRAVLRAAVAMNAAAVIPIVAAGCLASPWLVRIYGPQFADAWPTFAVVLITAGIVAITNPVGYVLAASERLWLGFLMNSGWAAAFLVATVLLVGWGSLGLATGRLLAYALHFGWTLWFAMRFVRAGAARGT
protein production: failed

MTAHWRYLNSLQPLSNLFIQAALRRKVTGTQLPDLGLRSWIAVDNDKLEAYRKVCGFADSSLLPPTYPHALAFTLQMQLMTSPEFPFPLLGLIHLGNQIRTLRPLGGVSQLYISVQATDLRPHPKGATFTLLTQAEDGMGLLWEEESTLLCTAVHLEDAPVPMPEAYLRPLIELDRWRASAQIGREYAKVSGDYNPIHLSAASAKLFGFPRAIAHGMWLKARALAALEDHLPASNVQISVQFQKPVRLPADVTLSASAAGSHGEFRVEGQEGIVHMIGSWQPATD
protein production: failed

MKVVGLDLGGTKIAAGVFDGKRLLSKVVVPTPKEGGERVAEALAEAAERAEREAGVRGEAIGLGTPGPLDFRRGVIRFAPNIPGVQDFPIRRILEEATGRPVFLENDANAAALAEHHLGAAQGEESSLYLTVSTGIGGGVVLGGRVLRGERGQGGELGHLTLLPGGPACGCGLEGCLEALAAGRALERDATYAFQRPVDTRELFRLFQAGDPKAERLVLQAARYVGIGLASLVKAFDPGVVVLGGGVALNAPEGYWEALLEAYRRYLQGWEAPPLRRARLGAEAGLLGAALTAYLEVKDGSG
protein production: not failed

LYLAGIGQYAALLEAGFARARSAEETVRLLVTSYIDWVVANPDWARFILHSRGRVEAGELGERLRADNQAHFARIHAALAGYRAEGLFREMPDDCFASVVIGPAHDLARQWLAGRTRVALADCRELLAQVAWDSVRAA
protein production: not failed

MRNLKELKWSDLKTGIFFLLGLGFAAYLGLVIGKNTSIFTGVTTIKVMTRDVNGLAENNFVSVAGKKIGTVSKLDFSTQNDSLFVVAELKLQNEYANLVTKDSKASIRSLGVLGDKYVDIKAGTGKPVKEGDFIQLVPEDGLSALTDNAKSTIEKLNTLLDKLNNGDGPAGRLISDKQMGEDLQKTVMNLRKSSDELTRVSAELHNGKGLLPKLINDKSLADNTEQTIVNLKNAAAETETLMKQLNEGKGTLGKLNSDPALYNNLSKTLISLDTLLIDLKKRPNRYVRFTLF
protein production: failed

MTHNHHHQAVDNLLNVFSRASHDLTVVHSKLDKEFQQMYPANANPMKLIQRIKKLQEDVTLLKHQCLDLLSAKQDLIDKAQTTLVGNCNLIQKMNASLGESTNGDTDDALADFNQIIDEWTMQVRSRTVGETEDADKEDINKMLFSAICHTN
protein production: failed

MDEGCVIAFLVWVDNGECILERQSAPDELNLFDIILVAKEQWRLLLAVPLLLAVLAAGISLAMPDQYTAKALVNIPAPVGAAGGVNIVQSTSLLEQAVEKFQLQRYYAVEDNRSALLALSNVVKTTAGKDGLLEISATDRNAEQAARLGNYLADLTRQHILDGNLTEQSKRYFVLQKRLDVESEQVSQLSRKVAQLVPDQEAALGGEGMQLISGFATLEAQLAFQNVQAAGNSGAVSNLQSSVMQLRASLELANPKVRQMSNEQLAGLRDLYFHRALAAELQRQVSLAKSLADQDVQIVLKASAPLEKSGPKRTLIVLLAGLVGLMLAIALIVCKRQWRELSNRFAKNTAA
protein production: failed
